Assay results reported in article PMC12369479, “A monomer–dimer switch modulates the activity of plant adenosine kinase” (Journal of Experimental Botany, 2025).

Key:
[1] = molecular target: Arabidopsis thaliana adenosine kinase 2 (6×His-AtADK2) (Arabidopsis thaliana) (UniProt Q9LZG0); assay: dynamic light scattering; AtADK2 at higher concentrations (5 mg/ml) (preliminary results)
[2] = molecular target: Arabidopsis thaliana adenosine kinase 2 (6×His-AtADK2) (Arabidopsis thaliana) (UniProt Q9LZG0); assay: SEC; gel permeation chromatography of 6×His-AtADK2 at 1.2 mg/ml (preliminary results, Supplementary Fig. S10)
[3] = molecular target: Physcomitrella patens adenosine kinase 1 (PpADK1) (Physcomitrella patens) (UniProt O49923)
[4] = molecular target: Physcomitrella patens adenosine kinase 1 (PpADK1) (Physcomitrella patens) (UniProt O49923); assay: SEC; gel permeation chromatography of moss ADKs on Superdex 200 10/30 HR, 20 mM Tris-HCl pH 7.5, 100 mM NaCl; dimers from 0.01 mg/ml (0.25 µM), mainly dimeric above 0.3 mg/ml (7.7 µM); monomer to dimer
[5] = molecular target: Physcomitrella patens adenosine kinase 1 (PpADK1) (Physcomitrella patens) (UniProt O49923); assay: SAXS; small-angle X-ray scattering, 50 mM Tris-HCl pH 7.5, three concentrations up to 5 mg/ml; Guinier analysis and Bayesian molecular weight estimate
[6] = molecular target: Physcomitrella patens adenosine kinase 1 (PpADK1) (Physcomitrella patens) (UniProt O49923); assay: AUC; sedimentation velocity of PpADK1 at a higher concentration (>0.3 mg/ml), 20 mM Tris-HCl pH 7.5, 150 mM NaCl, 10 mM MgCl2, 10 µM DTT, 1% glycerol, 25 °C, c(s) analysis; monomer to dimer
[7] = molecular target: Physcomitrella patens adenosine kinase 1 (PpADK1) (Physcomitrella patens) (UniProt O49923); assay: dynamic light scattering; hydrodynamic diameter, 20 mM Tris-HCl pH 7.5, 1 mM MgCl2, apoform or with 2 mM ATP, 22 °C
[8] = molecular target: Physcomitrella patens adenosine kinase 2 (PpADK2) (Physcomitrella patens)
[9] = molecular target: Physcomitrella patens adenosine kinase 2 (PpADK2) (Physcomitrella patens); assay: SEC; gel permeation chromatography of moss ADKs on Superdex 200 10/30 HR, 20 mM Tris-HCl pH 7.5, 100 mM NaCl; dimers from 0.01 mg/ml (0.25 µM), mainly dimeric above 0.3 mg/ml (7.7 µM); monomer to dimer
[10] = molecular target: Zea mays adenosine kinase 1 (ZmADK1) (Zea mays); assay: SEC; gel permeation chromatography of maize ADKs at higher concentrations (30 mg/ml), Supplementary Fig. S1
[11] = molecular target: Zea mays adenosine kinase 2 (ZmADK2) (Zea mays); assay: as above
[12] = molecular target: Zea mays adenosine kinase 3 (ZmADK3) (Zea mays); assay: as above

“Arabidopsis thaliana adenosine kinase 2 (6×His-AtADK2) (from UniProt Q9LZG0 1-345) (enzyme)” gave a stoichiometry N [1] of 2 and a stoichiometry N [2] of 2.
For “Physcomitrella patens adenosine kinase 1 (PpADK1) (from UniProt O49923 1-343) (enzyme)”, the specific activity with 100 µM Ado (coupled reaction with PK and LDH, 30 °C) (nmol s^–1 mg^–1) [3] was 5.09, the stoichiometry N [4] was 2 and the stoichiometry N [5] was 2. For the same substance, the stoichiometry N [6] was 2 and the stoichiometry N [7] was 2.
Work on “Physcomitrella patens adenosine kinase 2 (PpADK2) (enzyme)” yielded a specific activity with 100 µM Ado (coupled reaction with PK and LDH, 30 °C) (nmol s^–1 mg^–1) [8] of 4.7 and a stoichiometry N [9] of 2.
For “Zea mays adenosine kinase 1 (ZmADK1) (enzyme)”, the stoichiometry N [10] was 2.
For “Zea mays adenosine kinase 2 (ZmADK2) (enzyme)”, the stoichiometry N [11] was 2.
For “Zea mays adenosine kinase 3 (ZmADK3) (enzyme)”, the stoichiometry N [12] was 2.
